These results are taken from patent publication US20130224187A1 (Alexion, published 2013).

T1: human C4a (human, UniProt P0C0L4 680-756)
T1 construct: domain: C4a
T1 sequence (looked up): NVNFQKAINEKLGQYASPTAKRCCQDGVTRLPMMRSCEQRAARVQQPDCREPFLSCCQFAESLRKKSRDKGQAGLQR

T2: human C5a (human, UniProt P01031 678-751)
T2 construct: also called hC5a; free human C5a
T2 sequence: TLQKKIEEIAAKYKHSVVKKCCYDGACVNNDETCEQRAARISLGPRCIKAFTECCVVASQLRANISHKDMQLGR

T3: human C5a desarg (human, UniProt P01031 678-750)
T3 construct: also called desarginated C5a; hC5a desarg
T3 sequence: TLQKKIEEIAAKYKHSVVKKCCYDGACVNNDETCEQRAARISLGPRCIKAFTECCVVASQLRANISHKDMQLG

B1: 5an179ME (antibody, V domains shown)
VH: EVQLQQSGPELVKPGASVRMSCKASGYTFTSYLIHWVKQKPGQGLEWIGYIYPFNDGTKNNENFKGKATLTSDKSSSTVYMEVSSLTSEDSAVYYCARSHGPHYYGGSYGYHFDYWGQGTTLTVSS
VL: DVVMTQTPLSLPVSLGDQASISCRSSQSLVHSNGNTYLHWYLQKPGQSPKLLIYKVSNRFSGVPDRFSGSGSGTDFTLKISRVEAEDLGVYFCSQSTHVPLTFGAGTKLELKR
notes: Full length mouse IgG2a
B2: 5an178ME (antibody, V domains shown)
VH: EVKLVESGGGLVQPGGSRKLSCAASGFTFSDYGMVWVRQAPGKGLEWVAFISSGSSNIYYADTVKGRFTISRDNPKNTLFLQMNSLRSEDTAIYYCGRAFSFYYGYDYWGQGTTLTVSS
VL: EIVLTQSPASLAVSLGQRATISCSASESVEYFGTSLMQWYQQKPGQPPKLLIYAASNVESGVPARFSGSGSGTDFSLNIHPVEEDDIAMYFCQQSRKVPWTFGGGTKLEIKR
notes: Full length mouse IgG2a
B3: 5an048ME (antibody, V domains shown)
VH: EVRLQQSGPELVKPGASVRISCKASGYTFNDYYYMNWVKQSHGKSLEWIGYIFPKTGGTHYNQRFKGKATLTVDKSSSTAYMELRSLTSEDSAVYYCASGPFAYWGQGTLVTVSA
VL: EIVLTQSPAIMSASPGEKVTMTCRASSSVSSSYLHWYQQKSGASPKLWIYSTSNLASGVPARFSGSGSGTSYSLTISSVEAEDAATYYCQQYSGYPLTFGGGTKLEIKR
notes: Full length mouse IgG2a
B4: BNJ367 (antibody, human IgG2, kappa)
heavy: QVQLVQSGAEVKKPGASVKVSCKASGYTFTDYSMDWVRQAPGQGLEWMGAINPNSGGTNYNQKFKDRVTMTRDTSTSTVYMELSSLRSEDTAVYYCARSGSYDGYYAMDYWGQGTTVTVSSASTKGPSVFPLAPCSRSTSESTAALGCLVKDYFPEPVTVSWNSGALTSGVHTFPAVLQSSGLYSLSSVVTVPSSNFGTQTYTCNVDHKPSNTKVDKTVERKCCVECPPCPAPPVAGPSVFLFPPKPKDTLMISRTPEVTCVVVDVSQEDPEVQFNWYVDGVEVHNAKTKPREEQFNSTYRVVSVLTVLHQDWLNGKEYKCKVSNKGLPSSIEKTISKAKGQPREPQVYTLPPSQEEMTKNQVSLTCLVKGFYPSDIAVEWESNGQPENNYKTTPPVLDSDGSFFLYSRLTVDKSRWQEGNVFSCSVMHEALHNHYTQKSLSLSLGK
light: DIVMTQSPDSLAVSLGERATINCRASESVDSYGNSFMHWYQQKPGQPPKLLIYRASNLESGVPDRFSGSGSGTDFTLTISSLQAEDVAVYYCQQSNEDPYTFGGGTKVEIKRTVAAPSVFIFPPSDEQLKSGTASVVCLLNNFYPREAKVQWKVDNALQSGNSQESVTEQDSKDSTYSLSSTLTLSKADYEKHKVYACEVTHQGLSSPVTKSFNRGEC
notes: Humanized full length IgG
B5: BNJ371 (antibody, human IgG2, kappa, V domains shown)
VH: QVQLVQSGAEVKKPGASVKVSCKASGYTFTDYSMDWVRQAPGQGLEWMGAINPNSGGTNYNQKFKDRVTMTRDTSTSTVYMELSSLRSEDTAVYYCARSGSYDGYYAMDYWGQGTTVTVSS
VL: DIVMTQSPDSLAVSLGERATINCRASESVDSYGNSFMHWYQQKPGQPPKLLIYWASTRESGVPDRFSGSGSGTDFTLTISSLQAEDVAVYYCQQSNEDPYTFGGGTKVEIKR
notes: Humanized full length IgG; Light chain CDR2 is humanized
B6: BNJ364 (antibody, human IgG2, kappa)
heavy: QVQLVQSGAEVKKPGASVKVSCKASGYTFTDYSMDWVRQAPGQGLEWMGAINPNSGGTNYNQKFKDRVTMTRDTSTSTVYMELSSLRSEDTAVYYCARSGSYDGYYAMDYWGQGTTVTVSSASTKGPSVFPLAPCSRSTSESTAALGCLVKDYFPEPVTVSWNSGALTSGVHTFPAVLQSSGLYSLSSVVTVPSSNFGTQTYTCNVDHKPSNTKVDKTVERKCCVECPPCPAPPVAGPSVFLFPPKPKDTLMISRTPEVTCVVVDVSHEDPEVQFNWYVDGVEVHNAKTKPREEQFNSTFRVVSVLTVVHQDWLNGKEYKCKVSNKGLPAPIEKTISKTKGQPREPQVYTLPPSREEMTKNQVSLTCLVKGFYPSDISVEWESNGQPENNYKTTPPMLDSDGSFFLYSKLTVDKSRWQQGNVFSCSVMHEALHNHYTQKSLSLSPGK
light: B4 light
notes: Humanized full length IgG
B7: BNJ366 (antibody, human IgG2, kappa)
heavy: QVQLVQSGAEVKKPGASVKVSCKASGYTFTDYSMDWVRQAPGQGLEWMGAIHLNTGYTNYNQKFKGRVTMTRDTSTSTVYMELSSLRSEDTAVYYCARGFYDGYSPMDYWGQGTTVTVSSASTKGPSVFPLAPCSRSTSESTAALGCLVKDYFPEPVTVSWNSGALTSGVHTFPAVLQSSGLYSLSSVVTVPSSNFGTQTYTCNVDHKPSNTKVDKTVERKCCVECPPCPAPPVAGPSVFLFPPKPKDTLMISRTPEVTCVVVDVSHEDPEVQFNWYVDGVEVHNAKTKPREEQFNSTFRVVSVLTVVHQDWLNGKEYKCKVSNKGLPAPIEKTISKTKGQPREPQVYTLPPSREEMTKNQVSLTCLVKGFYPSDISVEWESNGQPENNYKTTPPMLDSDGSFFLYSKLTVDKSRWQQGNVFSCSVMHEALHNHYTQKSLSLSPGK
light: B4 light
notes: Humanized full length IgG
B8: BNJ378 (antibody, human IgG2, kappa, V domains shown)
VH: B5 VH
VL: DIQMTQSPSSLSASVGDRVTITCRASESVDSYGNSFMHWYQQKPGKAPKLLIYRASNLESGVPSRFSGSGSGTDFTLTISSLQPEDFATYYCQQSNEDPYTFGGGTKVEIKR
notes: Humanized full length IgG
B9: BNJ347 (antibody, V domains shown)
VH: QVQLVQSGAEVKKPGASVKVSCKASGYTFTDYSMDWVRQASGKGLEWMGAIHLNTGYTNYNQKFKGRVTITADESTSTAYMELSSLRSEDTAVYYCARGFYDGYSPMDYWGQGTTVTVSS
VL: B5 VL with W54R, T57N, R58L
notes: also called BNJ347 humanized anti-C5a antibody
B10: BNJ354 (antibody, V domains shown)
VH: B9 VH with I70M, A72R, E74T, A79V
VL: B5 VL with W54R, T57N, R58L
notes: also called BNJ354 humanized anti-C5a antibody
B11: BNJ346 (antibody, V domains shown)
VH: B9 VH with S41P, K43Q, M48V
VL: B5 VL with W54R, T57N, R58L
notes: also called BNJ346 humanized anti-C5a antibody
B12: BNJ345 (antibody, V domains shown)
VH: B9 VH with A9S, V11L, S41P, K43Q
VL: B5 VL with W54R, T57N, R58L
notes: also called BNJ345 humanized anti-C5a antibody
B13: BNJ350 (antibody, V domains shown)
VH: B5 VH with M48V, N61S, M70I, R72A, T74E, V79A
VL: B5 VL with W54R, T57N, R58L
notes: also called BNJ350 humanized anti-C5a antibody

Changes are numbered by the printed parent chain. A value given as a limit tells only on which side of the number the result lay.

T4 sequence (P01024 672-748 limits assumed): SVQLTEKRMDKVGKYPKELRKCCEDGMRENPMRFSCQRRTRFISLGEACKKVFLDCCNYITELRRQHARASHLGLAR

The target of the first assay is T1, human C4a. Description: Biolayer interferometry (Octet); biotinylated antigen on streptavidin tip, IgG in solution.
Method: (§2) These antibodies were evaluated for specificity using Biolayer Interferometry on an Octet (ForteBio Inc.).
Regarding B1, the binding result is “no binding (tested: 20 nM)”.

Take B2: the binding result is on record as “no binding (tested: 20 nM)”.

With B3, the binding result is “no binding (tested: 20 nM)”.

Another assay addresses T4, human C3a (human, UniProt P01024 672-748).
T4 construct: domain: C3a
The assay is described as above.
Method: as §2
For B1, the binding result is “no binding (tested: 20 nM)”.

Regarding B2, the binding result is on record as “no binding (tested: 20 nM)”.

For the molecule B3, the binding result was “no binding (tested: 20 nM)”.

Another assay addresses T2, human C5a. Description: Biolayer interferometry (Octet); biotinylated antigen on streptavidin tip, 20 nM IgG in solution.
Method: as §2
Consider B1, for which the binding result is recorded as “binds”.

As to B2, the binding result is on record as “binds”.

As for B3, the binding result was “binds”.

A further assay deals with T3, human C5a desarg. The assay is described as above.
Method: as §2
Turning to B1, the binding result was “binds”.

With B2, the binding result is recorded as “binds”.

With B3, the binding result was “binds”.

For the next assay, the target named is T2, human C5a. The assay can be described thus: SPR (Biacore); summary sentence of Table 4. On the procedure:
(§1) See, e.g., Karlsson and Larsson (2004) Methods Mol Biol 248:389-415. […] The surface was regenerated with 20 mM HCl, 0.02% P20 after each cycle to remove bound antibody and antigen. The data was evaluated using Biacore BlAevaluation software using a 1:1 Langmuir Model Fit (Rmax:Global Fit; R1:Local Fit). Kinetics information such as (kₐ: Association Rate constant), (kd:Dissociation Rate constant) and KD (Equilibrium Dissociation constant) was obtained from the fit. These experiments were for screening purposes with a minimal number of analyte concentrations (3 to 4) with 1 duplicate.
As to B4, the Kd was less than 1 nM.

The molecule B5 returned a Kd of less than 1.2 nM.

B6 registered a Kd of less than 1 nM.

B7: the dissociation constant (Kd) was less than 1 nM.

In turn, B8 displayed a Kd of less than 1 nM.

A further assay deals with T1, human C4a. The assay can be described thus: Octet analysis.
Regarding B9, the binding result is listed as “no binding”.

For B10, the binding result is on record as “no binding”.

Turning to B11, the binding result was “no binding”.

For the molecule B12, the binding result is on record as “no binding”.

Consider B13, for which the binding result was “no binding”.

For another assay, the target named is T5, human full-length C5 (human, UniProt P01031 19-673; P01031 678-1676).
T5 construct: mature; also called uncleaved human C5; native, fully-folded human C5
T5 sequence (P01031 19-673 limits assumed, chain 1 of 2): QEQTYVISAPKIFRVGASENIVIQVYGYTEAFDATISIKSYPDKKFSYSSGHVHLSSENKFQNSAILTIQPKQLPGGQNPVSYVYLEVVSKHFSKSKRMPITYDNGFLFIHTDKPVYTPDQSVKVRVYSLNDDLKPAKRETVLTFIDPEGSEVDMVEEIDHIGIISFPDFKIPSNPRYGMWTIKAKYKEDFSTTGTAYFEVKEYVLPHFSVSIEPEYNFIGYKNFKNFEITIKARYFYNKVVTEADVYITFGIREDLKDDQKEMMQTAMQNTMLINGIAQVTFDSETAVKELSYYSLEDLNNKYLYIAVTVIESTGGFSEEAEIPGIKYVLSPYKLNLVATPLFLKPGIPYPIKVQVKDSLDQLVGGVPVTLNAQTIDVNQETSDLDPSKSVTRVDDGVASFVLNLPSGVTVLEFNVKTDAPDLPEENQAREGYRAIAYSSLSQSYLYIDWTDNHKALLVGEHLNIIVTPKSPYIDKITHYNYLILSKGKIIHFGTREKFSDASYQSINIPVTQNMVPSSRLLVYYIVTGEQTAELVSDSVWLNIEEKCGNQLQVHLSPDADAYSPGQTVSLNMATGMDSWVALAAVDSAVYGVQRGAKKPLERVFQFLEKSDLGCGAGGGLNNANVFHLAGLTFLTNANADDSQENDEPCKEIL
T5 sequence (P01031 678-1676 limits assumed, chain 2 of 2): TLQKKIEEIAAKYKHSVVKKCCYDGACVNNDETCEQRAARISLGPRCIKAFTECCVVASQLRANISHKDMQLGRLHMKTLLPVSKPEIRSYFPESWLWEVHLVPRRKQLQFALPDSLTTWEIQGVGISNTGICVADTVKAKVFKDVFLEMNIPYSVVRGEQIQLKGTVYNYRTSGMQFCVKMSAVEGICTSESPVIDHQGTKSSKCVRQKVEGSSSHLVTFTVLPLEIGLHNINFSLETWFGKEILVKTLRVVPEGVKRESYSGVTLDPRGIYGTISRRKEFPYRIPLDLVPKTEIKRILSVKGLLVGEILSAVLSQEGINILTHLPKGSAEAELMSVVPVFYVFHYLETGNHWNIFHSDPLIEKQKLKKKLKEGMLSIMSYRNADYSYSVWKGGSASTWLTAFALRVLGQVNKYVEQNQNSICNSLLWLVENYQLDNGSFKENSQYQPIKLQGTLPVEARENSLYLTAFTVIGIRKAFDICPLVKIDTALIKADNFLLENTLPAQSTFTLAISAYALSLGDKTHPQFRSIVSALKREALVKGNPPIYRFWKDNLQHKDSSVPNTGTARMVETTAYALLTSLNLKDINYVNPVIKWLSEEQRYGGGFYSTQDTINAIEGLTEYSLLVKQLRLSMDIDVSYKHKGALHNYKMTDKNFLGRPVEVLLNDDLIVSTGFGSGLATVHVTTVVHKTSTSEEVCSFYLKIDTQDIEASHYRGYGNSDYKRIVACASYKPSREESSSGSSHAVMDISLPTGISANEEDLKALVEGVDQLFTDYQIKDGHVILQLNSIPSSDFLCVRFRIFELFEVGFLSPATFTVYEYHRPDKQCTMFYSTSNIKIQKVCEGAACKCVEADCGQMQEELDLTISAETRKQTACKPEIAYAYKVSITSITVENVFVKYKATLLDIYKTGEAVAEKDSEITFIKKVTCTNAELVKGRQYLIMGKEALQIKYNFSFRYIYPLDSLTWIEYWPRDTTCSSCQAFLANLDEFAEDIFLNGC
The assay can be described thus: Octet analysis.
Take B9: the binding result is “no binding”.

On to B10, for which the binding result was “no binding”.

On to B11, for which the binding result was “no binding”.

Take B12: the binding result is reported as “no binding”.

On to B13, for which the binding result is given as “no binding”.

A further assay deals with T4, human C3a. The assay can be described thus: Octet analysis.
Take B9: the binding result is “no binding”.

Consider B10, for which the binding result is given as “no binding”.

Regarding B11, the binding result is given as “no binding”.

On to B12, for which the binding result was “no binding”.

Take B13: the binding result is reported as “no binding”.

Another assay addresses T2, human C5a. The assay can be described thus: SPR (Biacore); antibody captured by anti-human Fc on CM5 chip, human C5a 0.6-5.9 nM as analyte; 1:1 Langmuir fit. On the procedure:
as §1
B4 had an equilibrium dissociation constant (Kd) of 0.198 nM, a koff of 0.000778 s⁻¹ and a kon of 3.94e+06 M⁻¹ s⁻¹.

The molecule B5 gave a Kd of 1.18 nM, a koff of 0.00282 s⁻¹ and an on-rate constant (kon) of 2.38e+06 M⁻¹ s⁻¹.

Molecule B6 displayed a Kd of 0.644 nM, a koff of 0.000638 s⁻¹ and a kon of 991000 M⁻¹ s⁻¹.

The molecule B7 yielded a Kd of 0.15 nM, a koff of 0.000158 s⁻¹ and a kon of 1.05e+06 M⁻¹ s⁻¹.

In turn, B8 gave a dissociation constant (Kd) of 0.298 nM, a koff of 0.000576 s⁻¹ and an on-rate constant (kon) of 1.93e+06 M⁻¹ s⁻¹.
